Source: US20110236380A1 (published 2011)
Numbering of substitutions follows the chain as printed.

B1: DOM10-53-567 (other)
VH: GVQLLESGGGLVQPGGSLRLSCAASGFVFAWYDMGWVRQAPGKGLEWVSSIDWHGEVTYYADSVKGRFTISRDNSKNTLYLQMNSLRAEDTAVYYCATAEDEPGYDYWGQGTLVTVSS
B2: DOM10-53-616 (other)
VH: B1 VH with A30P, E56K, V57I
B3: DOM10-53-546 (other)
VH: B1 VH with A30P, H54K, E56G, V57K
B4: DOM10-53-568 (other)
VH: B1 VH with E56K, V57I
B5: DOM10-53-474 (other)
VH: B1 VH with V28T
notes: Anti-IL-13 immunoglobulin single variable domain (dAb), monomer

target: T1, Cynomolgus monkey IL-13 (cynomolgus monkey, UniProt Q0PW92 21-132); assay: cell-based or functional assay
T1 sequence (Q0PW92 entry or part of it): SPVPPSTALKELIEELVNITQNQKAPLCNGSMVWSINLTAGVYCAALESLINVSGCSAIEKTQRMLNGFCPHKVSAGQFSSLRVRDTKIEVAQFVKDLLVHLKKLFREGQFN

Row | HEK assay Cyno EC50 | Binder
1 | 5.1 nM | B1
2 | 5.9 nM | B2
3 | 5.9 nM | B3
4 | 8.8 nM | B4
5 | 30.1 nM | B5

target: T2, human IL-13 (human, UniProt P35225 35-146, limits assumed); assay: cell-based or functional assay
T2 sequence (P35225 35-146 limits assumed): as the sequence (Q0PW92 entry or part of it) above, with S1G, K10R, V42M, N67S, R83H, V100L counted along it

Row | HEK assay Human EC50 | Binder
6 | 0.31 nM | B1
7 | 2.9 nM | B2
8 | 1 nM | B3
9 | 0.62 nM | B4
10 | 2 nM | B5

target: rhesus IL-13 (rhesus, UniProt Q864V6 19-132, limits assumed); assay: cell-based or functional assay
Sequence (Q864V6 19-132 limits assumed): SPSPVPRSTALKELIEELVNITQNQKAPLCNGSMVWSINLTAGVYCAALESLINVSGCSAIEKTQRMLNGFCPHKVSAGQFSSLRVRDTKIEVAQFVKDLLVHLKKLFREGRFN

Row | HEK assay Rhesus EC50 | Binder
11 | 2.8 nM | B1
12 | 7.6 nM | B2
13 | 11.4 nM | B3
14 | 8.1 nM | B4
15 | 30.2 nM | B5

target: T1, Cynomolgus monkey IL-13; assay: Biacore SPR, biotinylated IL-13 on streptavidin chip, dAb as analyte, 1:1 model, 25 C
Procedure: (§1) The binding affinities of purified DOM10 dAbs to both human and cyno IL-13 were assessed by Biacore analysis. Analysis was carried out using biotinylated IL-13. About 150 RU of biotinylated IL-13 was coated to a streptavidin (SA) chip (Biacore, GE healthcare). The surface was regenerated back to baseline using 0.1 M Glycine pH 2. dAbs were passed over this surface at defined concentrations using a flow rate of 50 μl/min. Data were analyzed using BIAevaluation software (Biacore, GE Healthcare) and fitted to the 1:1 model of binding. The binding data fitted well to the 1:1 model for all DOM10 dAbs. Biacore runs were carried out at 25° C.

Row | Kd | Binder
16 | 2.6 nM | B1
17 | 3.2 nM | B2
18 | 2.1 nM | B3
19 | 1.6 nM | B4
20 | 9.3 nM | B5

target: T2, human IL-13; assay: as above
Procedure: as §1

Row | Kd | Binder
21 | 0.072 nM | B1
22 | 0.13 nM | B2
23 | 0.094 nM | B3
24 | 0.07 nM | B4
25 | 0.259 nM | B5

target: T2, human IL-13; assay: DOM10 sandwich ELISA: dAb dilution series mixed with 150 pg/ml human IL-13, loss of IL-13 detection by the kit antibodies
Procedure: dAbs were also tested in DOM10 ELISA to assess the potency against human IL-13 and cell based HEK Blue-STAT6 (HEK STAT) assays to assess the potency against human, cyno and Rhesus IL-13. DOM10 ELISA measures the ability of DOM10 dAbs to bind IL-13 and prevent its binding to an IL-13 detection antibody. A MAXISORP™ plate (high protein binding ELISA plate, Nunc, Denmark) is coated overnight with 2.5 μg/ml coating antibody (Module Set, Bender MedSystems, Vienna, Austria), then washed once with 0.1% (v/v) Tween 20 in PBS before blocking with 0.5% (w/v) BSA 0.05% (v/v) Tween 20 in PBS for 2 hours at room temperature. The plate is washed twice as previously detailed before the addition of 150 pg/ml IL-13 (GSK) mixed with a dilution series of DOM10 dAb (i.e., an anti-IL-13 dAb) and incubated for 1 hour. The plate is washed twice before binding of IL-13 to the capture antibody is detected using biotin conjugated detection antibody (Module Set, Bender Medsystems), followed by peroxidase labelled Streptavidin (Module Set, Bender MedSystems). Finally the plate is washed three times before incubation with TMB substrate (KPL, Gaithersburg, USA), and the reaction stopped by the addition of HCl and the absorbance read at 450 nm. Anti-IL-13 dAb activity causes a decrease in IL-13 binding and therefore a decrease in absorbance compared with the IL-13 only control.

Row | EC50 | Binder
26 | 0.021 nM | B1
27 | 0.048 nM | B2
28 | 0.125 nM | B3
29 | 0.217 nM | B5
